Results reported in patent US20240287484.

Tests used:
Settings in all cases: qPCR; 3 mM MgCl2, 37 C
[1] = system: T1, MG153-32 RT (uncultivated organism (metagenomic))
T1 sequence: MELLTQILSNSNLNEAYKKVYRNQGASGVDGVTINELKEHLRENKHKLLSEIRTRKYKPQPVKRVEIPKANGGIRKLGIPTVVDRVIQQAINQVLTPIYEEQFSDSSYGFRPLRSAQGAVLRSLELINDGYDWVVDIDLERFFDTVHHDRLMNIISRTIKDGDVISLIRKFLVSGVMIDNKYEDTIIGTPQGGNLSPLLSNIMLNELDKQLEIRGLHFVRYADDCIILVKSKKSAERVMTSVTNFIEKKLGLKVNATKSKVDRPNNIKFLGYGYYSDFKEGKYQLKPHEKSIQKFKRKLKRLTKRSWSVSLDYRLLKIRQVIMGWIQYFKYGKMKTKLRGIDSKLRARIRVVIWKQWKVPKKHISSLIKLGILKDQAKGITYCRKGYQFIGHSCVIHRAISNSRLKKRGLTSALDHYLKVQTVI

[2] = system: T2, MG165-4 RT (uncultivated organism (metagenomic))
T2 sequence: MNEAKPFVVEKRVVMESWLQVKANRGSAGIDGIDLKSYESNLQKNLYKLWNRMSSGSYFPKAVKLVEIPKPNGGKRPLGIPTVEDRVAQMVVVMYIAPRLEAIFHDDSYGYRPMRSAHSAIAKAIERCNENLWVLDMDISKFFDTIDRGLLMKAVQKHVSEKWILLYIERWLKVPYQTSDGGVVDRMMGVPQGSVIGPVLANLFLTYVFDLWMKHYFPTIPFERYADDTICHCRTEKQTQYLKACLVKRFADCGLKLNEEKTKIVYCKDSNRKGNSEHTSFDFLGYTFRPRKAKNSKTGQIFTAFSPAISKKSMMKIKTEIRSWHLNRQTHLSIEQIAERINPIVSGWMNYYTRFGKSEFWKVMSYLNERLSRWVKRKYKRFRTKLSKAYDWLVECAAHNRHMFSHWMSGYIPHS

[3] = system: T3, MG165-6 RT (uncultivated organism (metagenomic))
T3 sequence: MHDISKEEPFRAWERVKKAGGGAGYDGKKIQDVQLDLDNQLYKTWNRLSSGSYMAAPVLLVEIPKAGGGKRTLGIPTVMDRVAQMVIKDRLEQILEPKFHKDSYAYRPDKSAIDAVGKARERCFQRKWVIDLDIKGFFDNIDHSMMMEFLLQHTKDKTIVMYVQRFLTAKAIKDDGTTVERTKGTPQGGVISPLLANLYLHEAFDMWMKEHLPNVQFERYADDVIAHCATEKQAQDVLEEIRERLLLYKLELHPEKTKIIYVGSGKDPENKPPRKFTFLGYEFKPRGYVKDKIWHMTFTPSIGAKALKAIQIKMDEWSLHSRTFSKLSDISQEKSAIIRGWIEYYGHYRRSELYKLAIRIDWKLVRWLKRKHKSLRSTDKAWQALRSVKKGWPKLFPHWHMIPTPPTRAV

[4] = system: T4, MG165-8 RT (uncultivated organism (metagenomic))
T4 sequence: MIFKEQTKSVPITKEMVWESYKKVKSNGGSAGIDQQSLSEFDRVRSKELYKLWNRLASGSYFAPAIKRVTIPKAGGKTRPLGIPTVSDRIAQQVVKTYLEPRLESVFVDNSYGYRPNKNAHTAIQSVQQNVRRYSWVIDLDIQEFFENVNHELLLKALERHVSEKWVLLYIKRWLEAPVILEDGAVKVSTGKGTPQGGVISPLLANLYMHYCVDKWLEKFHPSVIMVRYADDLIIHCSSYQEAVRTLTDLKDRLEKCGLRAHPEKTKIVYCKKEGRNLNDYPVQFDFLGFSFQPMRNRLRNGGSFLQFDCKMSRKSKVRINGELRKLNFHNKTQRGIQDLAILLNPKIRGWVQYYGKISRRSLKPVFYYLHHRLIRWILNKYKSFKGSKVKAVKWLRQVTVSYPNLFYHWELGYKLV

Measured: activity (fold over background)

200 nt RNA template annealed to DNA primer
> 10: [1] | [2] | [3] | [4]
